Results as given in PMC4355076 (Molecular cell, 2015).

What was measured:
AUC = molecular target: the molecule itself; test: AUC
[1] = molecular target: T1, human UCH37 isoform 1, co-expressed with NFRKB (human, UniProt Q9Y5K5 1-329); test: cell-based or functional assay
T1 sequence (looked up): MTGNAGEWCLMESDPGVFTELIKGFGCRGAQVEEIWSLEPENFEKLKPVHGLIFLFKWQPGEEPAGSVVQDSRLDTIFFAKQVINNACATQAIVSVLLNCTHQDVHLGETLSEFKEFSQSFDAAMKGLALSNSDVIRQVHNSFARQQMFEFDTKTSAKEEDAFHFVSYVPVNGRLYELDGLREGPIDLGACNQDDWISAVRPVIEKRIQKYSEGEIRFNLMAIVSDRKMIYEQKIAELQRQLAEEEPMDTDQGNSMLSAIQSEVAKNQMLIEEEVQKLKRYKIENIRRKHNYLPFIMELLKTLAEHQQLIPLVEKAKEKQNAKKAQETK

[2] = molecular target: T2, human UCH37 (isoform 1), full-length (human, UniProt Q9Y5K5 1-329); test: cell-based or functional assay
T2 sequence (looked up): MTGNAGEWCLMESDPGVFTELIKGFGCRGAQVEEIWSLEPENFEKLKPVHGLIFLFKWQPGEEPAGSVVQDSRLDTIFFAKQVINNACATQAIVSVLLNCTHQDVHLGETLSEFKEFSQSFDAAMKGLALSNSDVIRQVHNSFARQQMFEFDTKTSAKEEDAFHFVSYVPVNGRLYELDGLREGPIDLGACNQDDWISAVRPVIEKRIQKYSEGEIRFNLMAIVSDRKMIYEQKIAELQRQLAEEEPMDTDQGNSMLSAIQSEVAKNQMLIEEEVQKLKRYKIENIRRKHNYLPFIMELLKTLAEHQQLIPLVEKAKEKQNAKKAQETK

UCH37(M148A,F149A) = molecular target: T3, UCH37(M148A,F149A) (human, UniProt Q9Y5K5 1-329, M148A | F149A); test: cell-based or functional assay
T3 sequence (looked up): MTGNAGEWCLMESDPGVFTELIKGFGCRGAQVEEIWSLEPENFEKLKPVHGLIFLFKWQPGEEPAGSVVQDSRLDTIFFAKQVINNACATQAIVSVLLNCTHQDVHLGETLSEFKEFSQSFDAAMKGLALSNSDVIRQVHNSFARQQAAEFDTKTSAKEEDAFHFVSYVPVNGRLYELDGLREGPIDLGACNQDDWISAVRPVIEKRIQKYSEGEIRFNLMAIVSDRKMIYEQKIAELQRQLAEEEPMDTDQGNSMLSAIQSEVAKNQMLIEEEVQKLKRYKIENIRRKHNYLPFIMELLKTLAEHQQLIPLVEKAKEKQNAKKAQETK

human UCH37 isoform 2 = molecular target: T4, human UCH37 isoform 2 (human, UniProt Q9Y5K5 1-329, deleting the codon for E246); test: cell-based or functional assay
T4 sequence (looked up): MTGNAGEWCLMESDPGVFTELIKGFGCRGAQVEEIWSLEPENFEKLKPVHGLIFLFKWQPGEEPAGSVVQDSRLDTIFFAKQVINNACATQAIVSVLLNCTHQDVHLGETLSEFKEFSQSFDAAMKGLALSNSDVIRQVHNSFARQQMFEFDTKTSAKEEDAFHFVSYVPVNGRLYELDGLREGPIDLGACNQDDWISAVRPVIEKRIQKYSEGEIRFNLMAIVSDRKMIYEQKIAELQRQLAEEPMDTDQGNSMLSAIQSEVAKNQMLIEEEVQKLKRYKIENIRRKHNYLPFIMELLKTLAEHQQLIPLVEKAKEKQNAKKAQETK

human ubiquitin = human ubiquitin (human, UniProt P0CG48 1-76); test: cell-based or functional assay

B1: UCH37(M269E,N291D) (enzyme, human, UniProt Q9Y5K5 1-329, looked up)
chain: MTGNAGEWCLMESDPGVFTELIKGFGCRGAQVEEIWSLEPENFEKLKPVHGLIFLFKWQPGEEPAGSVVQDSRLDTIFFAKQVINNACATQAIVSVLLNCTHQDVHLGETLSEFKEFSQSFDAAMKGLALSNSDVIRQVHNSFARQQMFEFDTKTSAKEEDAFHFVSYVPVNGRLYELDGLREGPIDLGACNQDDWISAVRPVIEKRIQKYSEGEIRFNLMAIVSDRKMIYEQKIAELQRQLAEEEPMDTDQGNSMLSAIQSEVAKNQELIEEEVQKLKRYKIENIRRKHDYLPFIMELLKTLAEHQQLIPLVEKAKEKQNAKKAQETK
Q: How did the Kd (AUC) turn out when B1 was run?
A: 49 µM

B2: NFRKB^1-117 (domain or fragment, human, UniProt Q6P4R8 1-117, looked up)
chain: MDSLDHMLTDPLELGPCGDGHGTRIMEDCLLGGTRVSLPEDLLEDPEIFFDVVSLSTWQEVLSDSQREHLQQFLPQFPEDSAEQQNELILALFSGENFRFGNPLHIAQKLFRDGHFN
Q: B2 was tested. Which “kcat of ubiquitin-AMC hydrolysis by the UCH37/NFRKB^1-117 complex” value [1] did it give?
A: 0.15 s⁻¹

Q: What about the “kcat/Km of ubiquitin-AMC hydrolysis by the UCH37/NFRKB^1-117 complex” value [1] of the same binder?
A: 0.005 s^−1μM^−1

B3: NFRKB^39-156 (domain or fragment, human, UniProt Q6P4R8 39-156, looked up)
chain: PEDLLEDPEIFFDVVSLSTWQEVLSDSQREHLQQFLPQFPEDSAEQQNELILALFSGENFRFGNPLHIAQKLFRDGHFNPEVVKYRQLCFKSQYKRYLNSQQQYFHRLLKQILASRSD
Q: For B3, which “kcat of ubiquitin-AMC hydrolysis by the UCH37/NFRKB^39-156 complex” value [1] is on record?
A: 0.25 s⁻¹

Q: What about the “kcat/Km of ubiquitin-AMC hydrolysis by the UCH37/NFRKB^39-156 complex” value [1] of the same binder?
A: 0.009 s^−1μM^−1

B4: NFRKB^1-156 (domain or fragment, human, UniProt Q6P4R8 1-156, looked up)
chain: MDSLDHMLTDPLELGPCGDGHGTRIMEDCLLGGTRVSLPEDLLEDPEIFFDVVSLSTWQEVLSDSQREHLQQFLPQFPEDSAEQQNELILALFSGENFRFGNPLHIAQKLFRDGHFNPEVVKYRQLCFKSQYKRYLNSQQQYFHRLLKQILASRSD
Q: With B4 as the binder, how does the “kcat of ubiquitin-AMC hydrolysis by the UCH37/NFRKB^1-156 complex” value [1] read?
A: 0.1 s⁻¹

Q: And the “kcat/Km of ubiquitin-AMC hydrolysis by the UCH37/NFRKB^1-156 complex” value [1]?
A: 0.006 s^−1μM^−1

B5: NFRKB^1-156(^97GSGS^100) (domain or fragment, human, UniProt Q6P4R8 1-156, looked up)
chain: MDSLDHMLTDPLELGPCGDGHGTRIMEDCLLGGTRVSLPEDLLEDPEIFFDVVSLSTWQEVLSDSQREHLQQFLPQFPEDSAEQQNELILALFSGEGSGSGNPLHIAQKLFRDGHFNPEVVKYRQLCFKSQYKRYLNSQQQYFHRLLKQILASRSD
Q: How did the “kcat of ubiquitin-AMC hydrolysis by the UCH37/NFRKB^1-156(^97GSGS^100) complex” value [1] turn out when B5 was run?
A: 5.94 s⁻¹

B6: human RPN13^285-407 (domain or fragment)
chain: GSWTQVDLASVLTPEIMAPILANADVQERLLPYLPSGESLPQTADEIQNTLTSPQFQQALGMFSAALASGQLGPLMCQFGLPAEAVEAANKGDVEAFAKAMQNNAKPEQKEGDTKDKKDEEEDMSLD
Q: Which “kcat of ubiquitin-AMC hydrolysis by the UCH37/RPN13^285-407 complex” value [2] does the source give for B6 here?
A: 5 s⁻¹

Q: What about the “kcat/Km of ubiquitin-AMC hydrolysis by the UCH37/RPN13^285-407 complex” value [2] of the same binder?
A: 1.6 s^−1μM^−1

Q: And the “kcat of ubiquitin-AMC hydrolysis by the UCH37(M148A,F149A)/RPN13^285-407 complex” value (UCH37(M148A,F149A))?
A: 4.7 s⁻¹

Q: What about the “kcat of ubiquitin-AMC hydrolysis by the UCH37(isoform2)/RPN13^285-407 complex” value (human UCH37 isoform 2) of the same binder?
A: 4.7 s⁻¹

Q: What about the “kcat/Km of ubiquitin-AMC hydrolysis by the UCH37(isoform2)/RPN13^285-407 complex” value (human UCH37 isoform 2) of the same binder?
A: 1.4 s^−1μM^−1

B7: RPN13(Q337A,Q338A)^285-407 (domain or fragment, human)
chain: GSWTQVDLASVLTPEIMAPILANADVQERLLPYLPSGESLPQTADEIQNTLTSPQFAAALGMFSAALASGQLGPLMCQFGLPAEAVEAANKGDVEAFAKAMQNNAKPEQKEGDTKDKKDEEEDMSLD
Q: With B7 as the binder, how does the “kcat of ubiquitin-AMC hydrolysis by the UCH37/RPN13(Q337A,Q338A)^285-407 complex” value (human ubiquitin) read?
A: 4.7 s⁻¹
